This test has as its target APC15R (the 15-aa repeat region of Adenomatous polyposis coli, repeats A-D with the linker region) (human). The test can be described thus: cross-linking.

Sequence of APC15R (the 15-aa repeat region of Adenomatous polyposis coli, repeats A-D with the linker region) (human) (P25054 2-2843): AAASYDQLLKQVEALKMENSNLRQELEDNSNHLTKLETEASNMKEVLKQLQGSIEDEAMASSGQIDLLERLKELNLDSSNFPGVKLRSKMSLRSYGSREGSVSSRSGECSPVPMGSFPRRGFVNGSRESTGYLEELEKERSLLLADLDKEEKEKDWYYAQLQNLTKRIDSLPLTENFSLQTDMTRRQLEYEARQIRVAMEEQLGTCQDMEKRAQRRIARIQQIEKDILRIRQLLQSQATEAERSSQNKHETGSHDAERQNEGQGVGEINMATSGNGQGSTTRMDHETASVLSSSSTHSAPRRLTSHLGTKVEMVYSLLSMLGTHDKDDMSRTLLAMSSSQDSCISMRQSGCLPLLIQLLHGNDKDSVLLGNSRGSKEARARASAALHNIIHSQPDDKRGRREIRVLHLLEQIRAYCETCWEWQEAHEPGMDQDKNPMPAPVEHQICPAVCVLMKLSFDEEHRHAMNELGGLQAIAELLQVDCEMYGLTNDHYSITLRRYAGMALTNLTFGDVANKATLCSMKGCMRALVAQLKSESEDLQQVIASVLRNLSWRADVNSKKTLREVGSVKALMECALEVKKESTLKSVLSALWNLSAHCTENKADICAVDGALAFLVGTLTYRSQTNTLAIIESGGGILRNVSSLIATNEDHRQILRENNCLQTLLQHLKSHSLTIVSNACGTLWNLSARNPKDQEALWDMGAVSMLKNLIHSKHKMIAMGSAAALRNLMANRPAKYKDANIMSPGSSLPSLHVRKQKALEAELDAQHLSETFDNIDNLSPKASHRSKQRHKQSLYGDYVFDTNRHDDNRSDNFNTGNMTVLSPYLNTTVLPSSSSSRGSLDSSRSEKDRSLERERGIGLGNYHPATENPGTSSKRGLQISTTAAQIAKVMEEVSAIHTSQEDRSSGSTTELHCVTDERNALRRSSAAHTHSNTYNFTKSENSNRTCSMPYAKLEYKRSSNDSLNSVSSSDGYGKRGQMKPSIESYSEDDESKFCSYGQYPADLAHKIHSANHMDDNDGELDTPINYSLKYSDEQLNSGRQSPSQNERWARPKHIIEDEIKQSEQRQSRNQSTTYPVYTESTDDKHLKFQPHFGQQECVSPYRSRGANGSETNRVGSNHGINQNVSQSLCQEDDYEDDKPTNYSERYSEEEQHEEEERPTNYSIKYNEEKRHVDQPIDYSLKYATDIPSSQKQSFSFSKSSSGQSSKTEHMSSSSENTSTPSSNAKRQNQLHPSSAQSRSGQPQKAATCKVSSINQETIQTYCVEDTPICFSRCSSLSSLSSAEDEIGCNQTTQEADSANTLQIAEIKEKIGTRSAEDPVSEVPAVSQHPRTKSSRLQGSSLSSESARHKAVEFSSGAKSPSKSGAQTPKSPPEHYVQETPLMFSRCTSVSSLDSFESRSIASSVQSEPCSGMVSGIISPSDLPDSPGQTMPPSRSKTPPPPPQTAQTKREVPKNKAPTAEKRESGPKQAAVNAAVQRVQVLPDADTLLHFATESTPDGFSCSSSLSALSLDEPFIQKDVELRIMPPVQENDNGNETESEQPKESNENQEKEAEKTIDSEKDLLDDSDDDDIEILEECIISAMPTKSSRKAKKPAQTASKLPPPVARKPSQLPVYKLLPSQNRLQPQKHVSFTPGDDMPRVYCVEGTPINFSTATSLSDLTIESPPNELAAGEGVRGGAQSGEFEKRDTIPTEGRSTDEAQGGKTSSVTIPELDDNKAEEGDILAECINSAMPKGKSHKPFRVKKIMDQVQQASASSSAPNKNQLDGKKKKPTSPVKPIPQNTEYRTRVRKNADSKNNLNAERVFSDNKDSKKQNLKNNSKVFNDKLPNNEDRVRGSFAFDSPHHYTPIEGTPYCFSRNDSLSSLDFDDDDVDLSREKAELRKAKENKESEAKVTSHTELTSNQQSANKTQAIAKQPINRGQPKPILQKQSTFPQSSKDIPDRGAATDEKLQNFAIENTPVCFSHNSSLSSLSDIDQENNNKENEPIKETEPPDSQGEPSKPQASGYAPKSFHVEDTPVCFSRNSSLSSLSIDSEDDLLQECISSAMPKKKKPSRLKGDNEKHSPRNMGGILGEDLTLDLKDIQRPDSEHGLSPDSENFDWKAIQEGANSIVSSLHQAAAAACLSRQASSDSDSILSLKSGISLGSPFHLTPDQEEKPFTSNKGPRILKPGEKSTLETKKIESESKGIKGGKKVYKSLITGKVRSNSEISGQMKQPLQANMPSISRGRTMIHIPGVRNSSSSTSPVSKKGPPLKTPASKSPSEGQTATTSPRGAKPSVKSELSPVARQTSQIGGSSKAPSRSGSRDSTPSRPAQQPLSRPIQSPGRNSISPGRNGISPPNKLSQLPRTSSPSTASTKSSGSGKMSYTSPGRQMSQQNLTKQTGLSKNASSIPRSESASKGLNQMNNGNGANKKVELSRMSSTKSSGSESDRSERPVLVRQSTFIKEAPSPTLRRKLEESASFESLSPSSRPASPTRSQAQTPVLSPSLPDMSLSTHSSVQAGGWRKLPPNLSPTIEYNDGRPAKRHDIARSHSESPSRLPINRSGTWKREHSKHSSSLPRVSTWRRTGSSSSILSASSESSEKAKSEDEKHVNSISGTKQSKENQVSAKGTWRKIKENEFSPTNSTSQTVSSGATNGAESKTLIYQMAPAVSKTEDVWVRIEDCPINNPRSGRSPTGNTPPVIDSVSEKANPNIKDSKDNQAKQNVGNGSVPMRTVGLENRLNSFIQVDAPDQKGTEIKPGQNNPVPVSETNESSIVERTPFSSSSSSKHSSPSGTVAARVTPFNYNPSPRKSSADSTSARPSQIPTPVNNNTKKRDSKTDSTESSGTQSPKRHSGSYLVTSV

The substance “β-catenin (aa. 150–665), the central region of β-catenin (from UniProt P35222 150-665) (domain or fragment)” registered a stoichiometry N (β-catenin per APC15R) of 1.

Source of the values: paper PMC8771494.
